Square brackets hold non-standard residues; d marks the D form. Ends that are not written are not given here. sY = N[C@@H](Cc1ccc(OS(=O)(=O)O)cc1)C(=O)O
How the values were obtained:
CCK2R L335A (human) = CCK2R L335A (human) (UniProt P32239)
CCK2R Q166A (human) = CCK2R Q166A (human) (UniProt P32239)
CCK2R R152A (human) = CCK2R R152A (human) (UniProt P32239)
CCK2R I156A (human) = CCK2R I156A (human) (UniProt P32239)
CCK2R K324N (human) = CCK2R K324N (human) (UniProt P32239)
[1] = target: T1, human CCK2R with 15-residue depletion at the C-terminus, N-terminal Flag-tag, C-terminal LgBiT and double MBP … (human, UniProt P32239 1-432); assay: cryo-EM structure; gastrin-17–CCK2R–Gq–scFv16 complex; CCK2R, GqiN, Gβγ-peptide and Ric-8A co-expressed in Sf9, ligand and apyrase added, complex purified on MBP resin and Superdex 200 (20 mM HEPES pH 7.5, 100 mM NaCl); 13 mg/mL on the grid; 3.1 Å; settings: both partners purified
T1 construct: human cholecystokinin receptor CCK2R, wild type, C-terminal 15 residues removed; also called CCK2 receptor; gastrin receptor; not shown: LgBiT, C-terminal, kept
T1 sequence (looked up): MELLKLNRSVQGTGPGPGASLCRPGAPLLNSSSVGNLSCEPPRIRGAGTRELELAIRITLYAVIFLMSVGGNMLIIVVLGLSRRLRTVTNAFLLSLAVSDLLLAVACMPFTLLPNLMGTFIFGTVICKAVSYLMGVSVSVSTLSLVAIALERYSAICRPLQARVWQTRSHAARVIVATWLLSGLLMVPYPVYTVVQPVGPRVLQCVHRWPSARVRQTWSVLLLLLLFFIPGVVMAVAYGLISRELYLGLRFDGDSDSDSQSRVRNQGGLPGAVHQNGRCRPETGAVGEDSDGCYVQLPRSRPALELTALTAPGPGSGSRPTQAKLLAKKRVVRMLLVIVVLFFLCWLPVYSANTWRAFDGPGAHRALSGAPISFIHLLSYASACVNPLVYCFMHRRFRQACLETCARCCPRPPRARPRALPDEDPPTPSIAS

Molecule: Gαq with the 29 N-terminal amino acids replaced by the corresponding sequence of Gαi1 (GqiN) (from UniProt P50148 30-359)
- CCK-8 efficacy, CCK-8-induced Gαq–Gγ dissociation (NanoBiT) assay (% reduction of efficacy) (CCK2R L335A (human)): 50
- CCK-8 efficacy, CCK-8-induced Gαq–Gγ dissociation (NanoBiT) assay (% reduction of efficacy) (CCK2R Q166A (human)): 50
- efficacy of G protein signaling against the wild type, CCK-8-induced Gαq–Gγ dissociation (NanoBiT) assay (% of the wild-type) (CCK2R R152A (human)): 30
- potency of G protein signaling against the wild type, CCK-8-induced Gαq–Gγ dissociation (NanoBiT) assay (CCK2R R152A (human)): > 3 fold
- CCK-8 efficacy, CCK-8-induced Gαq–Gγ dissociation (NanoBiT) assay (% reduction of efficacy) (CCK2R I156A (human)): 50

Molecule: dominant-negative human Gαs (DNGαs) (from UniProt P63092 1-394) (natural protein)
- coupling potency with Gs against wild-type CCK2R, CCK-8-induced cAMP accumulation (Fig. 7d) (CCK2R K324N (human)): > 3 fold

B1: sulfated gastrin-17 (peptide, UniProt P01350 76-92, looked up)
peptide: QGPWLEEEEEA[sY]GWMDF
modifications: not fully specified (residue 1, C-terminus)
notes: gastrin-17, cut product of the gastrin precursor
- binding result [1]: binds

From publication PMC9174195, “Structural insights into human brain–gut peptide cholecystokinin receptors” (Cell Discovery, 2022)
